Article PMC8913300 (2022)
No end group written: not given here.

T1: C terminus of Hsc70 interacting protein (CHIP) (human, UniProt Q9UNE7 1-303)
T1 chain: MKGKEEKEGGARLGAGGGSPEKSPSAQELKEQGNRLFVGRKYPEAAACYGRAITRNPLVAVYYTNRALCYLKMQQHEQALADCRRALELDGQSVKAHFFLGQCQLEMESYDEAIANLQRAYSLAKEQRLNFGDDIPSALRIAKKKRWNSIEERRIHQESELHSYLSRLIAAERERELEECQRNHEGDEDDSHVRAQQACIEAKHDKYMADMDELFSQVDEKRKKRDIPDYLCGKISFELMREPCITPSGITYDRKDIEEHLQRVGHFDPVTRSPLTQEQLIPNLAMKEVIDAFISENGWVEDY


Experiments:
[1] = target: T1, C terminus of Hsc70 interacting protein …; assay: FP
[2] = target: DnaJB4 (human, UniProt Q9UDY4 1-337); assay: FP
Chain of DnaJB4 (Q9UDY4 whole entry): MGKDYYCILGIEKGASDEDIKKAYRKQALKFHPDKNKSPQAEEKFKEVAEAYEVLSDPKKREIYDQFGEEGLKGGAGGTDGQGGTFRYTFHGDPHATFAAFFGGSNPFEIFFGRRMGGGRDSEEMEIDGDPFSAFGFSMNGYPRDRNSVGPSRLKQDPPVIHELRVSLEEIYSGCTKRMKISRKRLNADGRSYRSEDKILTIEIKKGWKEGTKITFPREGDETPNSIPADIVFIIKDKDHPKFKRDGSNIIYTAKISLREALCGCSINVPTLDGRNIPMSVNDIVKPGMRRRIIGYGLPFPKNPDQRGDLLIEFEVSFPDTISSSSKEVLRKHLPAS

Binder | Kd [1] [nM] | Kd [2] [nM]
GSGPEIEEVD-OH (not fully specified (N-terminus); printed as FITC-Ahx-GSGPEIEEVD) [Hsp72 T636E tracer FITC-Ahx-GSGPEIEEVD] | 5040 | 1760
GSGPTIEEVD-OH (not fully specified (N-terminus); printed as FITC-Ahx-GSGPTIEEVD) [Hsp72 tracer FITC-Ahx-GSGPTIEEVD] | 1050 | –
